Measured values from patent US20240060104A1, “ATP-PRT VARIANT WITH REDUCED FEEDBACK INHIBITION BY HISTIDINE, AND HISTIDINE-PRODUCING STRAIN EXPRESSING SAME” (DAESANG CORPORATION, priority 2020, published 2024).

Molecular target: T1, ATP phosphoribosyltransferase (Escherichia coli, UniProt P60757, E271K/H232T/R250H/S288P/T252L)
T1 construct: endogenous in cells; host or cells: E. coli DS9H (chromosomal hisG); sonicated cells, centrifuged supernatant
Assay type: biochemical, E. coli
Conditions: FIG. 1, compared among hisG_WT, hisG_SDM4, hisG_SDM7
Experimental: Each strain was cultured under conditions of 30° C. and 180 rpm. When the OD600 reached 0.6, ATP-PRT expression was induced with 1 mM IPTG (final concentration) and additional culture was performed for about 4 hours. The cells obtained after culturing were sonicated and centrifuged. The obtained supernatants were used for evaluation of ATP phosphoribosyltransferase activity. […] The protein in each supernatant was quantified to match the concentration, and the enzyme activity was measured after mixing the reactants according to the reaction composition shown in Table 8 below.
The activity was measured at 30° C. at a UV wavelength of 290 nm at 2 minute intervals for 30 minutes.

B1: hisG_SDM7: ATP-PRT variant containing H232T, R250H, T252L, E271K and S288P mutations (protein)
chain: MTDNTRLRIAMQKSGRLSDDSRELLARCGIKINLHTQRLIAMAENMPIDILRVRDDDIPGLVMDGVVDLGIIGENVLEEELLNRRAQGEDPRYFTLRRLDFGGCRLSLATPVDEAWDGPLSLNGKRIATSYPHLLKRYLDQKGISFKSCLLNGSVEVAPRAGLADAICDLVSTGATLEANGLREVEVIYRSKACLIQRDGEMEESKQQLIDKLLTRIQGVIQARESKYIMMTAPTERLDEVIALLPGAEHPLILPLAGDQQRVAMHMVSSKTLFWETMEKLKALGASPILVLPIEKMME
modifications: hisG_SDM7
notes: ATP-PRT variant containing H232T, R250H, T252L, E271K and S288P mutations
- Resistance to activity inhibition by histidine: best resistance
